Assay results taken from the supplement of paper PMC10065799, “High-throughput profiling of sequence recognition by tyrosine kinases and SH2 domains using bacterial peptide display” (eLife, 2023).

Experiments:
AncSZ = test: phosphorylation enrichment, bacterial display (enrichment ratio); higher = better substrate or ligand; peptides without Tyr show the background
EPHB1 = EPHB1 (UniProt P54762); test: as above
EPHB2 = EPHB2 (UniProt P29323); test: as above
FGFR1 = FGFR1 (UniProt P11362); test: as above
FGFR3 = FGFR3 (UniProt P22607); test: as above
Chain of FGFR3 (P22607 whole entry, looked up): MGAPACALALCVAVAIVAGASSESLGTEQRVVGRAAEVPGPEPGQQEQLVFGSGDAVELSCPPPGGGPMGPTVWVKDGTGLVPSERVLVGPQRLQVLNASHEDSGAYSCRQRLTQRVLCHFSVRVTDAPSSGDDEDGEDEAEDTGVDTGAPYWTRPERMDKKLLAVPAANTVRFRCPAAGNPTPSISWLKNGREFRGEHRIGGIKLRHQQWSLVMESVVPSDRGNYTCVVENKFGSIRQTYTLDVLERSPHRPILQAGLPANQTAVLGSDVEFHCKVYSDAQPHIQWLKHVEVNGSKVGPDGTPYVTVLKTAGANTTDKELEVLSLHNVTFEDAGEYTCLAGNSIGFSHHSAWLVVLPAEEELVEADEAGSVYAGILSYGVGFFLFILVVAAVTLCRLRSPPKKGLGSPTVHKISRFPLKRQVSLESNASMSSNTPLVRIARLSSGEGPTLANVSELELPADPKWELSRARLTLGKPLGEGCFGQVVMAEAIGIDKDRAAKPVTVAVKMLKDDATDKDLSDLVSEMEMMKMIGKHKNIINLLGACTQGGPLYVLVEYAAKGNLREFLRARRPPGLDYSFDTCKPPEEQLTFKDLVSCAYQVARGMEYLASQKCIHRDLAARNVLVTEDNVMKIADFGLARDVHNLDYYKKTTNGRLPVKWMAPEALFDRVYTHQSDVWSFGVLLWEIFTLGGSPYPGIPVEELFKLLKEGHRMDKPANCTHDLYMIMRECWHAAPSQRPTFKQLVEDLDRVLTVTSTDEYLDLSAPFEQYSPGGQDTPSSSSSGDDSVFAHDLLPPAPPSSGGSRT

Fer (mouse) = test: as above
Fes = Fes (UniProt P07332); test: as above
Chain of Fes (P07332 whole entry, looked up): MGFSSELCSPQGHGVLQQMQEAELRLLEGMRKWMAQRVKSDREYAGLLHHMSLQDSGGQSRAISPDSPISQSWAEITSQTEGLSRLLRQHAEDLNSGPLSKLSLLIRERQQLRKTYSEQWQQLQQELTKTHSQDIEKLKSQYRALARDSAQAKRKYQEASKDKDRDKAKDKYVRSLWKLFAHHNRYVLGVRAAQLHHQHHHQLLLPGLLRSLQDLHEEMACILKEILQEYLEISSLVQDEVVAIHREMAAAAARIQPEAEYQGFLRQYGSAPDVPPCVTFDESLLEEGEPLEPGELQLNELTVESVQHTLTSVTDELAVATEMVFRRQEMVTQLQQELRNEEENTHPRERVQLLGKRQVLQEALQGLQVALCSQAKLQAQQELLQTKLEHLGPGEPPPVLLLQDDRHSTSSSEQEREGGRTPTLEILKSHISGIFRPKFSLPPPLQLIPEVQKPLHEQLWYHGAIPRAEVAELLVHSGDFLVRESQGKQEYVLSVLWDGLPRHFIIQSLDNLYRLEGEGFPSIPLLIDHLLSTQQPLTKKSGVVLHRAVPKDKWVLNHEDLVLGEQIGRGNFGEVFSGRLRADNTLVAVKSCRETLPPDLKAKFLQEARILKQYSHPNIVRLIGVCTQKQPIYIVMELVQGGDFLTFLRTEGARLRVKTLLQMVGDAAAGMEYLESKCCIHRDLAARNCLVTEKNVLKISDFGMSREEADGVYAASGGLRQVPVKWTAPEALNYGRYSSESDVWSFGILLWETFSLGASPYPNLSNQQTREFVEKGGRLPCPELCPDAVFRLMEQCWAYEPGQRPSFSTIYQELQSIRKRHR

Fyn = Fyn (UniProt P06241); test: as above
Chain of Fyn (P06241 whole entry, looked up): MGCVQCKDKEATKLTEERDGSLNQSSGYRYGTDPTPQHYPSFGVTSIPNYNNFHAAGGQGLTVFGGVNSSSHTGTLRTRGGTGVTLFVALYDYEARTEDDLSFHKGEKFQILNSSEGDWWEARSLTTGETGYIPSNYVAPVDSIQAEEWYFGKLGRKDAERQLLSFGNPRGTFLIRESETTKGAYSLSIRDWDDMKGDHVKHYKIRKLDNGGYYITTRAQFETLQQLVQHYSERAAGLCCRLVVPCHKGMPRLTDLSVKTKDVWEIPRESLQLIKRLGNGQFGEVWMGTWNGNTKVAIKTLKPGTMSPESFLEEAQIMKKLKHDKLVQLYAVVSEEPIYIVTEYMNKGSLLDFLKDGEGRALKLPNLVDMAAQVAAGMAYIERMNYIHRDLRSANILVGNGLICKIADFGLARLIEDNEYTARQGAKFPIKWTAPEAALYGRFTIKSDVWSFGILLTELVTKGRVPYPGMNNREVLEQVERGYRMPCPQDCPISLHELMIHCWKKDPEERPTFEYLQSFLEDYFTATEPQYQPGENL

Hck = Hck (UniProt P08631); test: as above
Chain of Hck (P08631 whole entry, looked up): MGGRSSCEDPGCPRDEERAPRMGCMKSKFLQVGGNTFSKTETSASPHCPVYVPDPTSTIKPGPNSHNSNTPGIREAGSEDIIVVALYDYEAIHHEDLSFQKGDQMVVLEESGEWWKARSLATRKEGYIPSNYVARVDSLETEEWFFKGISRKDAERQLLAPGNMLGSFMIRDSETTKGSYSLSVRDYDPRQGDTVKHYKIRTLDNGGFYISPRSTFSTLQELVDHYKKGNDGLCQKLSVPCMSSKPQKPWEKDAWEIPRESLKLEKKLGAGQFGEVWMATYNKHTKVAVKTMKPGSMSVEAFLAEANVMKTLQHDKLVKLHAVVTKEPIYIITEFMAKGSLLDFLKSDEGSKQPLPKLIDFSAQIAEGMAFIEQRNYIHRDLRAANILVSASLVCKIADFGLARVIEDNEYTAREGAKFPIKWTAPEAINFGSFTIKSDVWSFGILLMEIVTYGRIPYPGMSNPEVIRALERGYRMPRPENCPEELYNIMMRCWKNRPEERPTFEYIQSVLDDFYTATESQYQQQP

Jak2 = Jak2 (UniProt O60674); test: as above
Chain of Jak2 (O60674 whole entry, looked up): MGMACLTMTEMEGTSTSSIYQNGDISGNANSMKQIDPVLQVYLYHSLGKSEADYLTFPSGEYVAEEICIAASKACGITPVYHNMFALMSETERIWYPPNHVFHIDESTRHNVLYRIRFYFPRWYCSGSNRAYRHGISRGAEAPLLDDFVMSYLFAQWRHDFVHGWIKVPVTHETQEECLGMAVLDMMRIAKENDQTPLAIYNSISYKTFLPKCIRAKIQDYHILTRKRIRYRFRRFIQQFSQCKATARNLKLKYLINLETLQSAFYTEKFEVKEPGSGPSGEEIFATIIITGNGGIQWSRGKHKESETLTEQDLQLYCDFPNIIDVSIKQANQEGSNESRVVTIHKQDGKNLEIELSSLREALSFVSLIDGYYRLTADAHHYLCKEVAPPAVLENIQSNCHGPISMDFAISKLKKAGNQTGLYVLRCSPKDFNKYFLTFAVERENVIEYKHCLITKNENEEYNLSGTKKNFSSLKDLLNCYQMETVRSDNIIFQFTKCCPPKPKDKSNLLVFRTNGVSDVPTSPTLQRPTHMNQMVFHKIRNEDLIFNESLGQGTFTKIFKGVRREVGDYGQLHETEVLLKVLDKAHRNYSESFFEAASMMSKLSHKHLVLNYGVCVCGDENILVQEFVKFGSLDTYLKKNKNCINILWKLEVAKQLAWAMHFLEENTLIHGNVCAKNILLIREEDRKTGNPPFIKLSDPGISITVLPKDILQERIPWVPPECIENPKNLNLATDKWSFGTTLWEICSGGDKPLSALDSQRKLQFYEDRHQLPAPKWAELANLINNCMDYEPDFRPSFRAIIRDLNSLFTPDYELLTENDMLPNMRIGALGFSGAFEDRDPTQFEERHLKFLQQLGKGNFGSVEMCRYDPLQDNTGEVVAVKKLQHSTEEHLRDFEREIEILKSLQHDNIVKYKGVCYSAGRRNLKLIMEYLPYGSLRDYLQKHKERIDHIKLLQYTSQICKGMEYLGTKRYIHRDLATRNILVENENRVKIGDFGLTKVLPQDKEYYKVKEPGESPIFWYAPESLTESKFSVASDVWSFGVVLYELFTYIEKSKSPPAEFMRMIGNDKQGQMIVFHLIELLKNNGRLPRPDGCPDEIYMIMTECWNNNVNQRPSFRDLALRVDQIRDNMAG

MERTK = MERTK (UniProt Q12866); test: as above
c-Abl (mouse) = test: as above
c-Src = test: as above
Grb2 SH2 = Grb2 SH2 (UniProt P62993); test: SH2 binding enrichment of the phosphorylated peptide, bacterial display (enrichment ratio); higher = better substrate or ligand; peptides without Tyr show the background
Chain of Grb2 SH2 (P62993 whole entry, looked up): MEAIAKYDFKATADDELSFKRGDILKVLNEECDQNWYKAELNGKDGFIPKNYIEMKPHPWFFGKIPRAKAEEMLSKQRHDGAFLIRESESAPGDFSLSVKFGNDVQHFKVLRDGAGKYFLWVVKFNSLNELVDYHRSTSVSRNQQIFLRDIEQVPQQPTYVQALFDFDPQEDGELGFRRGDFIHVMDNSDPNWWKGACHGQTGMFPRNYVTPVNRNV

SHP2-C SH2 = test: as above
c-Src SH2 = test: as above
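Wherever SH2 binding enrichment of the phosphorylated peptide, bacterial display is given: peptide library displayed on the E. coli surface as eCPX fusions, selected cells deep-sequenced, score is each peptide's frequency after selection divided by its frequency in the input.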
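Wherever phosphorylation enrichment, bacterial display is given: 11-residue human phosphosite peptides and single-mutation variants displayed on the E. coli surface, counted by deep sequencing, each peptide's frequency after selection divided by its frequency in the unselected input library; frequency after pTyr selection over input frequency; kinase dosed for 20-30% of maximal phosphorylation in three min.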

Chain of EPHB1 (P54762 whole entry, looked up): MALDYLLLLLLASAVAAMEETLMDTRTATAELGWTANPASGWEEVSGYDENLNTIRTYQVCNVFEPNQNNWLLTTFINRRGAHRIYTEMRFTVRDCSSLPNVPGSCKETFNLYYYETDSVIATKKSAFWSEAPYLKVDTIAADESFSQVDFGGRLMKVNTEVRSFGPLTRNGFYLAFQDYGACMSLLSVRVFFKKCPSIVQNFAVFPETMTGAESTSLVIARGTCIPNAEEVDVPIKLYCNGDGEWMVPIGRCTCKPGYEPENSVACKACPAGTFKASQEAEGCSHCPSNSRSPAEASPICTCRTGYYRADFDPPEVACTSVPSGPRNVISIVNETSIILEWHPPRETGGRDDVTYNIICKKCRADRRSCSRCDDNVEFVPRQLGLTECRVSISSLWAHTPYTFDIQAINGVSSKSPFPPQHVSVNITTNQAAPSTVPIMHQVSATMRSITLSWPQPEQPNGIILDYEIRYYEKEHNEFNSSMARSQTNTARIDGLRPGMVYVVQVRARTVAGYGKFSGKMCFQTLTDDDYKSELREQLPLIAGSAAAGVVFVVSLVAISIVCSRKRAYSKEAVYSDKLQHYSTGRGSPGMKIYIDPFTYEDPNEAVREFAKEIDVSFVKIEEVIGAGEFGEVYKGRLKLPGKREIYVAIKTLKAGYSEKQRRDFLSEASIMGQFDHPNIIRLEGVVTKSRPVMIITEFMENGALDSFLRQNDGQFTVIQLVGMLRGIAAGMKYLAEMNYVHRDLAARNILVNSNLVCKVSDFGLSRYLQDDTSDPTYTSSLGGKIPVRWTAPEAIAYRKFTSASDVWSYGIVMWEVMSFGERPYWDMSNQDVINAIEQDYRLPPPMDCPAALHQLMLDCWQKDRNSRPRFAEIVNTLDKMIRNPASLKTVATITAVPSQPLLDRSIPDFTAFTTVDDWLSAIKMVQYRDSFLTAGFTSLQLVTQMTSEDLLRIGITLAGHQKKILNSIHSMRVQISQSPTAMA

| Sequence | phosphorylation enrichment (AncSZ) | phosphorylation enrichment (EPHB1) | phosphorylation enrichment (EPHB2) | phosphorylation enrichment (FGFR1) | phosphorylation enrichment (FGFR3) | phosphorylation enrichment (Fer (mouse)) | phosphorylation enrichment (Fes) | phosphorylation enrichment (Fyn) | phosphorylation enrichment (Hck) | phosphorylation enrichment (Jak2) | phosphorylation enrichment (MERTK) | phosphorylation enrichment (c-Abl (mouse)) | phosphorylation enrichment (c-Src) | SH2 binding enrichment (Grb2 SH2) | SH2 binding enrichment (SHP2-C SH2) | SH2 binding enrichment (c-Src SH2) |
| --- | --- | --- | --- | --- | --- | --- | --- | --- | --- | --- | --- | --- | --- | --- | --- | --- |
| AIGYEYSEINI [SIGLEC12_Y588] | 1.44 | 0.797 | 0.562 | 5.67 | 3.56 | 6.47 | 0.999 | 1.11 | 2.3 | 0.987 | 0.492 | 0.9 | 2.03 | 0.656 | 1.58 | 8.56 |
| INNIDYYKNTT [FGFR2_Y656_K659N] | 0.724 | 0.392 | 0.451 | 0.535 | 0.538 | 0.359 | 0.708 | 0.495 | 0.462 | 0.59 | 0.428 | 0.574 | 0.378 | 1.22 | 0.793 | 0.662 |
| AIFWRYSKFFD [SH3PXD2B_Y45_R43W_YF] | 0.839 | 0.493 | 0.52 | 0.445 | 0.805 | 0.49 | 1.35 | 0.444 | 0.41 | 1.16 | 0.323 | 0.959 | 0.326 | 1.05 | 0.782 | 0.699 |
| FIIFIYAMKKK [SLCO1B1_Y645_L643F_YF] | 1.42 | 0.709 | 0.541 | 0.461 | 0.578 | 0.72 | 1.23 | 0.848 | 1.45 | 2.04 | 1.09 | 1.52 | 1.65 | 0.884 | 1.4 | 0.758 |
| YDCGMYSHLQG [LGR4_Y848] | 1.47 | 1.5 | 1.29 | 1.04 | 1 | 2.87 | 1.21 | 2.36 | 5.59 | 0.944 | 7.03 | 2.38 | 3.69 | 1.03 | 0.811 | 2.85 |
| DMQTLYVNTAA [SMCHD1_Y403] | 0.647 | 0.428 | 0.64 | 0.471 | 0.478 | 0.482 | 0.588 | 0.485 | 0.578 | 0.518 | 0.513 | 0.734 | 0.418 | 4.57 | 0.643 | 0.635 |
| LGKLIYPVGFW [NTHL1_Y177] | 1.6 | 0.999 | 1.02 | 0.816 | 1.13 | 0.557 | 1.87 | 0.752 | 0.746 | 1.67 | 0.634 | 1.27 | 1.35 | 1.53 | 1.55 | 1.13 |
| LYSGDYYRIQG [DDR2_Y740] | 7.93 | 29.2 | 30.3 | 32.7 | 26 | 1.81 | 1.83 | 11.5 | 10.4 | 23.8 | 19.3 | 7.77 | 10.5 | 1.02 | 0.531 | 0.984 |
| SSTASYFKAPG [RFX2_Y108_E110K] | 0.598 | 0.471 | 0.394 | 0.548 | 0.474 | 0.339 | 0.619 | 0.4 | 0.431 | 0.53 | 0.415 | 0.418 | 0.394 | 0.891 | 0.885 | 0.608 |
| KLPDAYERLIL [G6PD_Y437] | 0.756 | 0.545 | 0.49 | 0.992 | 0.561 | 0.634 | 0.944 | 0.491 | 0.582 | 0.591 | 0.522 | 0.796 | 0.542 | 0.949 | 0.723 | 2.48 |
| SSVKLYRVYCD [FGB_Y266_P265L] | 1.06 | 0.618 | 0.634 | 0.459 | 0.728 | 0.531 | 1.22 | 0.479 | 0.603 | 0.955 | 0.459 | 0.718 | 0.525 | 0.893 | 0.818 | 0.606 |
| GEDLSYGDVPP [IRS1_Y151] | 1.22 | 0.624 | 0.534 | 0.588 | 0.84 | 0.709 | 1.28 | 0.639 | 0.556 | 0.995 | 0.463 | 0.765 | 0.482 | 0.806 | 0.732 | 0.529 |
| SSSGGYGGGFG [KRT19_Y61_A60G_YF] | 0.48 | 0.341 | 0.346 | 0.32 | 0.477 | 0.358 | 0.593 | 0.355 | 0.35 | 0.499 | 0.398 | 0.512 | 0.356 | 1.09 | 0.481 | 0.375 |
| KDHRDYKYQPR [SOX9_Y172_P170R] | 0.534 | 0.397 | 0.424 | 0.482 | 0.514 | 0.445 | 0.864 | 0.61 | 0.489 | 0.779 | 0.456 | 0.784 | 0.426 | 1.26 | 1.08 | 1.22 |
| ISIFHCAKGQP [MPZ_Y82_Y82C] | 1.33 | 0.773 | 0.845 | 0.729 | 1.02 | 0.643 | 1.7 | 0.602 | 0.608 | 1.41 | 0.62 | 0.954 | 0.609 | 1.04 | 0.521 | 0.524 |
| SRDPFYEMLAA [CYTH1_Y382] | 1.21 | 3.5 | 1.71 | 5.1 | 3.2 | 12.4 | 1.26 | 2.55 | 4.88 | 0.729 | 7.89 | 0.681 | 2.96 | 0.957 | 0.748 | 2.44 |
| MHFSNYVSKGS [PDGFRA_Y849_D846Y_YF] | 0.522 | 0.604 | 0.439 | 0.394 | 0.565 | 0.367 | 0.578 | 0.495 | 0.457 | 0.489 | 0.381 | 0.406 | 0.384 | 0.831 | 0.578 | 0.551 |

| Sequence | phosphorylation enrichment (AncSZ) | phosphorylation enrichment (EPHB1) | phosphorylation enrichment (EPHB2) | phosphorylation enrichment (FGFR1) | phosphorylation enrichment (FGFR3) | phosphorylation enrichment (Fer (mouse)) | phosphorylation enrichment (Fes) | phosphorylation enrichment (Fyn) | phosphorylation enrichment (Hck) | phosphorylation enrichment (Jak2) | phosphorylation enrichment (MERTK) | phosphorylation enrichment (c-Abl (mouse)) | phosphorylation enrichment (c-Src) | SH2 binding enrichment (Grb2 SH2) | SH2 binding enrichment (SHP2-C SH2) | SH2 binding enrichment (c-Src SH2) |
| --- | --- | --- | --- | --- | --- | --- | --- | --- | --- | --- | --- | --- | --- | --- | --- | --- |
| VNFGAYINFFK [GLB1_Y488_D491Y_YF] | 1.38 | 0.586 | 0.558 | 0.663 | 0.963 | 0.624 | 1.75 | 0.441 | 0.495 | 1.87 | 0.57 | 1.49 | 0.717 | 0.918 | 0.784 | 0.611 |
| AKLDEYIAIAK [RCOR3_Y46] | 0.92 | 0.614 | 0.565 | 0.535 | 0.711 | 0.452 | 0.949 | 0.479 | 0.473 | 0.79 | 0.522 | 0.621 | 0.367 | 0.945 | 0.83 | 0.434 |
| ANVIHYFPTQA [SLC25A4_Y81_R80H] | 0.623 | 0.528 | 0.415 | 0.487 | 0.56 | 0.393 | 0.652 | 0.483 | 0.446 | 0.794 | 0.456 | 0.806 | 0.515 | 0.9 | 0.94 | 0.435 |
| SNKLFYQLEQE [PDPR_Y110_YF] | 1.25 | 0.628 | 0.738 | 0.588 | 0.692 | 0.583 | 1.39 | 1.45 | 0.641 | 1.3 | 0.508 | 0.791 | 1.91 | 0.869 | 0.649 | 0.651 |
| DPGVSYHTREE [PDHA1_Y301_R302H] | 0.677 | 0.351 | 0.429 | 0.452 | 0.548 | 0.383 | 0.764 | 0.483 | 0.551 | 0.465 | 0.405 | 0.399 | 0.41 | 0.65 | 0.713 | 0.359 |
| ASRKYYAMKIL [AKT3_Y174_G171R] | 0.505 | 0.367 | 0.338 | 0.475 | 0.535 | 0.441 | 0.634 | 0.348 | 0.368 | 0.385 | 0.437 | 0.379 | 0.265 | 1.1 | 1.14 | 1.18 |
| LSNFNYEQRGA [API5_Y497_G493S] | 1.21 | 0.796 | 1.15 | 0.918 | 1.02 | 0.651 | 1.51 | 1.14 | 0.509 | 1.41 | 0.796 | 1.11 | 1.14 | 0.897 | 0.706 | 0.48 |
| PMDTFYDSTRG [DYNC2H1_Y2231_YF] | 1.08 | 0.919 | 1.04 | 0.714 | 0.806 | 1.43 | 1.05 | 0.982 | 1.71 | 0.892 | 0.501 | 0.582 | 0.664 | 1.04 | 0.646 | 1.08 |
| AAVDNYCRHNY [HLA-DRB1_Y107_T106N] | 0.621 | 0.519 | 0.669 | 0.521 | 0.649 | 0.427 | 0.808 | 0.388 | 0.461 | 0.612 | 0.46 | 0.502 | 0.376 | 0.765 | 0.72 | 0.631 |
| GGRIDYIAGLD [APRT_Y60] | 0.898 | 0.85 | 0.417 | 0.447 | 0.545 | 0.521 | 0.829 | 0.409 | 0.52 | 0.708 | 0.46 | 0.582 | 0.422 | 0.789 | 0.728 | 0.498 |
| QGIPRYHSQSP [FOXF1_Y331] | 1.01 | 0.783 | 0.849 | 0.821 | 0.677 | 0.744 | 1.58 | 0.796 | 1.02 | 0.691 | 1.22 | 1.4 | 1.08 | 0.733 | 0.562 | 0.537 |
| PFTDPYFDFEI [ZC3H18_Y371_A368T_YF] | 2.52 | 0.835 | 0.64 | 16.2 | 12.4 | 2 | 1.88 | 2.06 | 1.17 | 2.84 | 0.898 | 1.03 | 5.82 | 1.14 | 0.815 | 0.649 |
| LESETYRRLLD [KRT12_Y429_I426S] | 1.44 | 0.75 | 0.836 | 0.784 | 1.02 | 0.708 | 1.66 | 0.684 | 0.697 | 1.07 | 0.664 | 0.778 | 0.517 | 0.915 | 0.911 | 0.429 |
| LRVHSYKSMQH [DRC7_Y516_P521H] | 1.4 | 0.911 | 0.772 | 0.533 | 0.69 | 0.949 | 0.883 | 0.954 | 0.634 | 1.42 | 0.896 | 1.13 | 1.06 | 0.881 | 1.18 | 0.841 |
| MASTSYDYCRV [BST2_Y6] | 1.11 | 4.88 | 3.51 | 1.27 | 0.851 | 2.69 | 0.68 | 0.481 | 0.905 | 0.687 | 0.904 | 0.956 | 0.577 | 0.904 | 0.671 | 1.79 |
| GDYLSYREFHL [ERBIN_Y1107_S1112L] | 1.8 | 16.4 | 22.7 | 5.4 | 3.96 | 0.79 | 0.809 | 3.1 | 2.45 | 1.53 | 0.478 | 15.7 | 2.46 | 0.84 | 0.689 | 0.491 |
